Test results from patent US20260201064A1 (ISU ABXIS, published 2026).
Positions count from the first letter of the chain named. Read-outs that look alike come from different tables or passages of the source.

T1: recombinant human ASM protein (human, UniProt P17405 47-630)
T1 construct: Recombinant human ASM in solution; also called acid sphingomyelinase (ASM) protein
T1 sequence: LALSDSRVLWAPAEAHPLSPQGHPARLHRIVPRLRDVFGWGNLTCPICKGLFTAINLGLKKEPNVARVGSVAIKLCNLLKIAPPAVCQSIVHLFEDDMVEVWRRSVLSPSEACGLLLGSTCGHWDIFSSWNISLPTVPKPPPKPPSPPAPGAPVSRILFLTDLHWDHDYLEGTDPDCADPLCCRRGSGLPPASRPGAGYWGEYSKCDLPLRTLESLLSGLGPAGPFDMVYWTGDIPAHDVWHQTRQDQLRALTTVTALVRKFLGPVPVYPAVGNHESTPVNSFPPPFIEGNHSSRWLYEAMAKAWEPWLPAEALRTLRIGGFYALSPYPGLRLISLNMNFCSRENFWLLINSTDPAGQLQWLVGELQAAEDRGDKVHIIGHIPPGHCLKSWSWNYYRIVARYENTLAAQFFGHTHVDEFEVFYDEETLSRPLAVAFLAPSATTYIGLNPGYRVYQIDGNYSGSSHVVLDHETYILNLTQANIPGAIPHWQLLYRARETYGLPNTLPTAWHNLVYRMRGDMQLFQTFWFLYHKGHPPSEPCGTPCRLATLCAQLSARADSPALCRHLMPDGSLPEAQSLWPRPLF

B1: #9104v-H02 (antibody, human IgG4 S228P, lambda, V domains shown)
VH: EVQLLESGGGLVQPGGSLRLSCAASGFTFSNYYMSWVRQAPGKGLEWVSGIYFGSGDIRYADSVKGRFTISRDNSKNTLYLQMNSLRAEDTAVYYCARDTPGFDYWGQGTLVTVSS
VL: QSVLTQPPSASGTPGQRVTISCTGSSSNIGNNAVNWYQQLPGTAPKLLIYYDSHRPSGVPDRFSGSKSGTSASLAISGLRSEDEADYYCGAWDYSLSAYVFGGGTKLTVLG
notes: Full-length IgG, lambda
B2: #9104v-L29 (antibody, human IgG4 S228P, lambda, V domains shown)
VH: B1 VH with F53Y, D57N, R59Y
VL: B1 VL with H54F, P56S, S57T
notes: Full-length IgG, lambda
B3: #9104v-H17 (antibody, human IgG4 S228P, lambda, V domains shown)
VH: B1 VH with Q39R, F53Y, D57T, I58P, R59Y, D62A
VL: B1 VL
notes: Full-length IgG, lambda
B4: #9104v-L65 (antibody, human IgG4 S228P, lambda, V domains shown)
VH: B1 VH with F53Y, D57N, R59Y
VL: B1 VL with S53Y, H54Y, R55Q, P56S
notes: Full-length IgG, lambda
B5: #9104v-L34 (antibody, human IgG4 S228P, lambda, V domains shown)
VH: B1 VH with F53Y, D57N, R59Y
VL: B1 VL with H54Y, R55Q, P56A
notes: Full-length IgG, lambda
B6: #9104v-L38 (antibody, human IgG4 S228P, lambda, V domains shown)
VH: B1 VH with F53Y, D57N, R59Y
VL: B1 VL with H54Y, S57F
notes: Full-length IgG, lambda
B7: #9104v-H13 (antibody, human IgG4 S228P, lambda, V domains shown)
VH: B1 VH with F53Y, D57I, I58P, R59Y, D62N
VL: B1 VL
notes: Full-length IgG, lambda
B8: #9104v-L64 (antibody, human IgG4 S228P, lambda, V domains shown)
VH: B1 VH with F53Y, D57N, R59Y
VL: B1 VL with S53Y, H54F, R55S, P56H
notes: Full-length IgG, lambda
B9: #9104v-L49 (antibody, human IgG4 S228P, lambda, V domains shown)
VH: B1 VH with F53Y, D57N, R59Y
VL: B1 VL with S53T, H54F, S57T
notes: Full-length IgG, lambda
B10: #9104v-L21 (antibody, human IgG4 S228P, lambda, V domains shown)
VH: B1 VH with F53Y, D57N, R59Y
VL: B1 VL with S53M, H54F, S57N
notes: Full-length IgG, lambda
B11: #9104v-H05 (antibody, human IgG4 S228P, lambda, V domains shown)
VH: B1 VH with F53Y, S55G, G56V, D57K, R59Y
VL: B1 VL
notes: Full-length IgG, lambda
B12: #9104v-H14 (antibody, human IgG4 S228P, lambda, V domains shown)
VH: B1 VH with F53Y, D57K, I58P, R59Y
VL: B1 VL
notes: Full-length IgG, lambda
B13: #9104v-L55 (antibody, human IgG4 S228P, lambda, V domains shown)
VH: B1 VH with F53Y, D57N, R59Y
VL: B1 VL with S53W, H54Y, S57T
notes: Full-length IgG, lambda
B14: #9104v-L52 (antibody, human IgG4 S228P, lambda, V domains shown)
VH: B1 VH with F53Y, D57N, R59Y
VL: B1 VL with S53V, S57R
notes: Full-length IgG, lambda
B15: #9104v-H10 (antibody, human IgG4 S228P, lambda, V domains shown)
VH: B1 VH with F53Y, S55N, D57I, I58P, R59Y, G66D
VL: B1 VL
notes: Full-length IgG, lambda
B16: #9104v-L33 (antibody, human IgG4 S228P, lambda, V domains shown)
VH: B1 VH with F53Y, D57N, R59Y
VL: B1 VL with H54Y, R55P, S57Y
notes: Full-length IgG, lambda
B17: #9104v-L63 (antibody, human IgG4 S228P, lambda, V domains shown)
VH: B1 VH with F53Y, D57N, R59Y
VL: B1 VL with S95W, S97G
notes: Full-length IgG, lambda
B18: #9104v-H11 (antibody, human IgG4 S228P, lambda, V domains shown)
VH: B1 VH with F53Y, D57I, I58P, R59Y, G66E
VL: B1 VL
notes: Full-length IgG, lambda
B19: #9104v-L25 (antibody, human IgG4 S228P, lambda, V domains shown)
VH: B1 VH with F53Y, D57N, R59Y
VL: B1 VL with H54F, R55P, P56A
notes: Full-length IgG, lambda
B20: #9104v-L46 (antibody, human IgG4 S228P, lambda, V domains shown)
VH: B1 VH with F53Y, D57N, R59Y
VL: B1 VL with H54Y, P56S, S57W
notes: Full-length IgG, lambda
B21: #9104v-H24 (antibody, human IgG4 S228P, lambda, V domains shown)
VH: B1 VH with I51L, F53Y, D57I, I58P, R59Y
VL: B1 VL
notes: Full-length IgG, lambda
B22: #9104v-L32 (antibody, human IgG4 S228P, lambda, V domains shown)
VH: B1 VH with F53Y, D57N, R59Y
VL: B1 VL with H54Y, R55L
notes: Full-length IgG, lambda
B23: #9104v-L39 (antibody, human IgG4 S228P, lambda, V domains shown)
VH: B1 VH with F53Y, D57N, R59Y
VL: B1 VL with H54Y, S57G
notes: Full-length IgG, lambda
B24: #9104v-L28 (antibody, human IgG4 S228P, lambda, V domains shown)
VH: B1 VH with F53Y, D57N, R59Y
VL: B1 VL with H54F, P56R
notes: Full-length IgG, lambda
B25: #9104v-H18 (antibody, human IgG4 S228P, lambda, V domains shown)
VH: B1 VH with F53Y, D57T, I58P, R59Y, A61S
VL: B1 VL
notes: Full-length IgG, lambda
B26: #9104v-H25 (antibody, human IgG4 S228P, lambda, V domains shown)
VH: B1 VH with I51T, F53Y, G54A, D57G, R59Y
VL: B1 VL
notes: Full-length IgG, lambda
B27: #9104v-L37 (antibody, human IgG4 S228P, lambda, V domains shown)
VH: B1 VH with F53Y, D57N, R59Y
VL: B1 VL with H54Y, P56A
notes: Full-length IgG, lambda
B28: #9104v-H19 (antibody, human IgG4 S228P, lambda, V domains shown)
VH: B1 VH with F53Y, D57V, I58P, R59Y
VL: B1 VL
notes: Full-length IgG, lambda
B29: #9104v-H22 (antibody, human IgG4 S228P, lambda, V domains shown)
VH: B1 VH with I51L, F53Y, S55G, D57T, I58P, R59Y
VL: B1 VL
notes: Full-length IgG, lambda
B30: #9104v-L47 (antibody, human IgG4 S228P, lambda, V domains shown)
VH: B1 VH with F53Y, D57N, R59Y
VL: B1 VL with H54Y, R55T
notes: Full-length IgG, lambda
B31: #9104v-L27 (antibody, human IgG4 S228P, lambda, V domains shown)
VH: B1 VH with F53Y, D57N, R59Y
VL: B1 VL with H54F, P56Q
notes: Full-length IgG, lambda
B32: #9104v-L23 (antibody, human IgG4 S228P, lambda, V domains shown)
VH: B1 VH with F53Y, D57N, R59Y
VL: B1 VL with S53Q, H54F
notes: Full-length IgG, lambda

Assays:
[1] = molecular target: T1, recombinant human ASM protein; assay: BLI (Octet), antibody on AHC sensor
Procedure: (§1) The binding affinity, to the ASM protein, of the produced antibodies specifically binding to the ASM protein and the interactive dynamics therebetween were measured using an Octet® QK384 system (Pall Life Sciences).
(§2) First, an antibody specifically binding to the ASM protein produced in Example 1 was captured using an anti-human IgG Fc capture (AHC) biosensor, and 1.25, 2.5, 5, 10, or 20 nM recombinant human ASM protein solution was added thereto. […] The association constant (Kₐ), dissociation constant (Kd), and equilibrium dissociation constant (KD) for each antibody were determined using Octet® analysis software (Pall Life® Sciences). As a result, the binding affinities, to the human ASM protein, of the antibodies with mutations in the heavy chain CDR regions of the antibody #9104 as depicted in Table 1 are shown in Table 5, and the binding affinities, to the human ASM protein, of the antibodies with mutations of the light chain CDR regions in the antibody #9104 as depicted in Table 2 are shown in Table 6.

[2] = molecular target: T1, recombinant human ASM protein; assay: BLI (Octet), antibody on AHC sensor; remark: listed apart in the source
Procedure: as §1, §2

Row | Binder | Kd [1] [nM] | koff [1] [s⁻¹] | kon [1] [M⁻¹ s⁻¹] | Kd [2] [nM] | koff [2] [s⁻¹] | kon [2] [M⁻¹ s⁻¹]
1 | B1 | 1.2 | 0.000333 | 278000 |  |  | 
2 | B2 |  |  |  | 1.07 | 0.000292 | 272000
3 | B3 | 0.719 | 0.000243 | 338000 |  |  | 
4 | B4 |  |  |  | 0.532 | 0.000192 | 360000
5 | B5 |  |  |  | 1.61 | 0.000493 | 306000
6 | B6 |  |  |  | 1.8 | 0.000343 | 191000
7 | B7 | 0.803 | 0.000185 | 231000 |  |  | 
8 | B8 |  |  |  | 0.505 | 0.000193 | 383000
9 | B9 |  |  |  | 0.785 | 0.000225 | 286000
10 | B10 |  |  |  | 0.556 | 0.000135 | 243000
11 | B11 | 1.03 | 0.000177 | 171000 |  |  | 
12 | B12 | 0.857 | 0.000281 | 328000 |  |  | 
13 | B13 |  |  |  | 0.879 | 0.00017 | 193000
14 | B14 |  |  |  | 0.982 | 0.000264 | 269000
15 | B15 | 0.651 | 0.000154 | 237000 |  |  | 
16 | B16 |  |  |  | 1.27 | 0.000289 | 227000

Row | Binder | Kd [1] [nM] | koff [1] [s⁻¹] | kon [1] [M⁻¹ s⁻¹] | Kd [2] [nM] | koff [2] [s⁻¹] | kon [2] [M⁻¹ s⁻¹]
17 | B17 |  |  |  | 1.41 | 0.000255 | 181000
18 | B18 | 0.781 | 0.000195 | 250000 |  |  | 
19 | B19 |  |  |  | 0.882 | 0.000259 | 294000
20 | B20 |  |  |  | 0.88 | 0.000258 | 293000
21 | B21 | 1.01 | 0.000206 | 204000 |  |  | 
22 | B22 |  |  |  | 1.37 | 0.000439 | 321000
23 | B23 |  |  |  | 1.52 | 0.000443 | 291000
24 | B24 |  |  |  | 1.05 | 0.000254 | 241000
25 | B25 | 2.69 | 0.000264 | 97900 |  |  | 
26 | B26 | 0.917 | 0.00019 | 207000 |  |  | 
27 | B27 |  |  |  | 1.27 | 0.000327 | 259000
28 | B28 | 0.692 | 0.000184 | 266000 |  |  | 
29 | B29 | 0.798 | 0.000157 | 197000 |  |  | 
30 | B30 |  |  |  | 1.41 | 0.000415 | 294000
31 | B31 |  |  |  | 1.02 | 0.000355 | 348000
32 | B32 |  |  |  | 0.817 | 0.000185 | 226000
